# From patent US5683903
# Target: macrophage scavenger receptors on transfected 293 cells (human macrophage scavenger receptor type I or type II; the filing does not say which)
# Assay: radioligand binding/uptake on transfected HEK 293 cells; about 5 µg/ml, 5 hours at 37° C.
substance,measurement,value
[125I]-acetylated LDL,binding/uptake (µg/mg protein),1.75
